{
  "source": "patent US20130052176",
  "about": "“APTAMER FOR NGF AND USE THEREOF” (SHIONOGI & CO., LTD, published 2013)",
  "binders": {"B1": {"name": "aptamer ID 26(14) (ssRNA)", "RNA": "GGGAGACUCGCCAGAGUUGAAAGAAACCCAAAUAAGUGUGCGCAC", "modifications": "2'-F pyrimidines; 2'-OMe purines except 2'-OH at 3,5,19-21,24,26; 5' idT and 3' idT"}, "B2": {"name": "aptamer ID 26(51) (ssRNA)", "RNA": "B1 RNA", "modifications": "2'-F pyrimidines except 2'-OMe at 7,8,9,11,12,17,18,33,37,45; 2'-OMe purines except 2'-OH at 3,19,20; 5' idT and 3' idT"}, "B3": {"name": "aptamer ID 26(50) (mixed)", "RNA": "B1 RNA", "modifications": "2'-F pyrimidines except 2'-OMe at 7,11,12,17,33,45, dT at 8,37 and dC at 9,29; 2'-OMe purines except 2'-OH at 3,19,20,26; 5' idT and 3' idT"}, "B4": {"name": "aptamer ID 26(49) (ssRNA)", "RNA": "B1 RNA", "modifications": "2'-F pyrimidines except 2'-OMe at 7,8,9,11,12,17,18,33,37,45; 2'-OMe purines except 2'-OH at 3,19,20,26; 5' idT and 3' idT"}, "B5": {"name": "aptamer ID 26(52) (ssRNA)", "RNA": "B1 RNA", "modifications": "2'-F pyrimidines except 2'-OMe at 7,8,9,11,12,17,18,33,37,39,45; 2'-OMe purines except 2'-OH at 3,19,20,26; 5' idT and 3' idT"}, "B6": {"name": "aptamer ID 26(15) (ssRNA)", "RNA": "B1 RNA", "modifications": "2'-F pyrimidines; 2'-OMe purines except 2'-OH at 3,5,19,20,24,26; 5' idT and 3' idT"}, "B7": {"name": "aptamer ID 26(64) (ssRNA)", "RNA": "B1 RNA", "modifications": "2'-F pyrimidines except 2'-OMe at 7,8,9,11,12,17,18,33,37,39,45; 2'-OMe purines except 2'-OH at 3,19,20,26; 5' PEG80TS4 (ssH linker); 3' idT"}, "B8": {"name": "aptamer ID 26(21) (mixed)", "RNA": "B1 RNA", "modifications": "2'-F pyrimidines except dC at 7; 2'-OMe purines except 2'-OH at 3,19,20,26; 5' idT and 3' idT"}, "B9": {"name": "aptamer ID 26(59) (ssRNA)", "RNA": "B1 RNA", "modifications": "2'-F pyrimidines except 2'-OMe at 7,8,9,11,12,17,18,33,37,45; 2'-OMe purines except 2'-F at g3 and 2'-OH at 19,20,26; 5' idT and 3' idT"}, "B10": {"name": "aptamer ID 26(62) (ssRNA)", "RNA": "B1 RNA", "modifications": "2'-F pyrimidines except 2'-OMe at 7,8,9,11,12,17,18,33,37,45; 2'-OMe purines except 2'-OH at 3,19,20 and LNA at a26; 5' idT and 3' idT"}, "B11": {"name": "aptamer ID 26(43) (mixed)", "RNA": "B1 RNA", "modifications": "2'-F pyrimidines except dC at 7,9,11,12,29,45 and dT at 8,17,33,37; 2'-OMe purines except 2'-OH at 3,19,20,26; 5' idT and 3' idT"}, "B12": {"name": "aptamer ID 26(63) (mixed)", "RNA": "B1 RNA", "modifications": "2'-F pyrimidines except 2'-OMe at 7,8,9,11,12,17,18,33,37,39,45 and dC at 27,29; 2'-OMe purines except 2'-OH at 3,19,20,26; 5' idT and 3' idT"}, "B13": {"name": "aptamer ID 1 (ssRNA)", "RNA": "GGGAGAACUUCGACCAGAAGUUUGAAAGAAACCCAAAUUAAAGUGAACAGUAUGUGCGCAUACA", "modifications": "2'-F at all pyrimidines"}, "B14": {"name": "aptamer ID 21 (ssRNA)", "RNA": "GGGAGAACUUCGCCAGAAGUUUGAAAGAAACCCAAAUAAAGAGUGCGCUCA", "modifications": "2'-F at all pyrimidines"}},
  "conditions_in_all_cases": "tags: amine-coupled to CM5 chip in SPR; soluble in cell assays; chain copies: 2",
  "key": {"[1]": {"target": "T1, NGF (nerve growth factor) (human, UniProt P01138 P01138:122-241)", "T1 sequence (P01138 122-241, one chain of several)": "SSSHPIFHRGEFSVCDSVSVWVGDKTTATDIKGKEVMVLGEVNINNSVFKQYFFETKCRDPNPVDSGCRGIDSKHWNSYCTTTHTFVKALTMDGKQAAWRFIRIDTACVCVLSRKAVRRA", "assay": "cell_activity; neurite outgrowth, NGF 0.38 nM; SPR binding; TF-1 IC50 0.09 nM", "protocol": "(§1) The neurite outgrowth inhibitory activity of the aptamer obtained in Example 1 was evaluated by using Neuroscreen-1 cell, which is a subclone of PC-12 cells.\n(§2) The cells (2500 cells per well) were cultured for one day in an RPMI-1640 medium containing 2.5% horse serum and 1.25% fetal bovine serum in a 96 well flat-bottom plate coated with collagen type IV. […] Two days later, the cytoplasm and nuclei were stained using Cellomics Neurite Outgrowth Kit (manufactured by Thermo Scientific), and neurite length per cell was measured by Cellomics ArrayScan VTI (manufactured by Thermo Scientific). With the neurite length per cell obtained by the addition of NGF alone as inhibitory activity 0%, and that of the cell obtained by NGF free culture for 2 days as inhibitory activity 100%, the inhibitory activity of the aptamer was calculated from the neurite length per cell obtained by culturing with the addition of NGF and the aptamer in mixture. When the inhibitory activity was 0% or below, ‘0%’ is indicated."}, "[2]": {"target": "T1, NGF (nerve growth factor)", "assay": "cell_activity; neurite outgrowth, NGF 0.38 nM; SPR binding; TF-1 IC50 0.110 nM", "protocol": "as §1, §2"}, "[3]": {"target": "T1, NGF (nerve growth factor)", "assay": "cell_activity; neurite outgrowth, NGF 0.38 nM; SPR binding; TF-1 IC50 0.108 nM", "protocol": "as §1, §2"}, "[4]": {"target": "T1, NGF (nerve growth factor)", "assay": "cell_activity; neurite outgrowth, NGF 0.38 nM; SPR binding; TF-1 IC50 0.083 nM", "protocol": "as §1, §2"}, "[5]": {"target": "T1, NGF (nerve growth factor)", "assay": "cell_activity; neurite outgrowth, NGF 0.38 nM; SPR binding; TF-1 IC50 0.062 nM", "protocol": "as §1, §2"}, "[6]": {"target": "T1, NGF (nerve growth factor)", "assay": "cell_activity; neurite outgrowth, NGF 0.38 nM; SPR binding; TF-1 IC50 0.072 nM", "protocol": "as §1, §2"}, "[7]": {"target": "T1, NGF (nerve growth factor)", "assay": "cell_activity; neurite outgrowth, NGF 0.38 nM; SPR binding; TF-1 IC50 0.081 nM"}, "[8]": {"target": "T1, NGF (nerve growth factor)", "assay": "cell_activity; neurite outgrowth, NGF 0.38 nM; not tested by SPR; TF-1 IC50 0.051 nM", "protocol": "as §1, §2"}, "[9]": {"target": "T1, NGF (nerve growth factor)", "assay": "cell_activity; neurite outgrowth, NGF 0.38 nM; SPR binding; TF-1 IC50 0.175 nM", "protocol": "as §1, §2"}, "[10]": {"target": "T1, NGF (nerve growth factor)", "assay": "cell_activity; neurite outgrowth, NGF 0.38 nM; SPR binding; TF-1 IC50 0.101 nM", "protocol": "as §1, §2"}, "[11]": {"target": "T1, NGF (nerve growth factor)", "assay": "cell_activity; neurite outgrowth, NGF 0.38 nM; SPR binding; TF-1 IC50 0.120 nM", "protocol": "as §1, §2"}, "[12]": {"target": "T1, NGF (nerve growth factor)", "assay": "cell_activity; neurite outgrowth, NGF 0.38 nM; SPR binding; TF-1 IC50 0.128 nM", "protocol": "as §1, §2"}, "[13]": {"target": "T1, NGF (nerve growth factor)", "assay": "cell_activity; neurite outgrowth, NGF 0.38 nM; SPR binding; TF-1 IC50 0.119 nM", "protocol": "as §1, §2"}, "[14]": {"target": "T1, NGF (nerve growth factor)", "assay": "cell_activity; neurite outgrowth, NGF 1.1 nM; SPR binding; blocks NGF-TrkA; TF-1 IC50 20.4 nM", "protocol": "as §1, §2"}, "[15]": {"target": "T1, NGF (nerve growth factor)", "assay": "cell_activity; neurite outgrowth, NGF 1.1 nM; SPR binding; TF-1 IC50 5.7 nM", "protocol": "as §1, §2"}, "[16]": {"target": "T1, NGF (nerve growth factor)", "assay": "cell_activity; neurite outgrowth, NGF 1.1 nM; SPR binding; TF-1 IC50 1.0 nM"}},
  "data": [
    {"binder": "B1", "values": [
      {"measurement": "IC50", "setting": "[1]", "result": 0.082, "unit": "nM"}
    ]},
    {"binder": "GGGAGACUCGCCAGAGUUGAAAGAAACCCAAAUAAGUGUGCGCAC (ssRNA, 2'-F pyrimidines; 2'-OMe purines except 2'-OH at 3,19,20,24; 5' idT and 3' idT)", "note": "[aptamer ID 26(20)]", "values": [
      {"measurement": "IC50", "setting": "[2]", "result": 0.016, "unit": "nM"}
    ]},
    {"binder": "B2", "values": [
      {"measurement": "IC50", "setting": "[3]", "result": 0.191, "unit": "nM"}
    ]},
    {"binder": "B3", "values": [
      {"measurement": "IC50", "setting": "[4]", "result": 0.046, "unit": "nM"}
    ]},
    {"binder": "B4", "values": [
      {"measurement": "IC50", "setting": "[5]", "result": 0.059, "unit": "nM"}
    ]},
    {"binder": "B5", "values": [
      {"measurement": "IC50", "setting": "[6]", "result": 0.101, "unit": "nM"}
    ]},
    {"binder": "B6", "values": [
      {"measurement": "IC50", "setting": "[7]", "result": 0.067, "unit": "nM"}
    ]},
    {"binder": "B7", "values": [
      {"measurement": "IC50", "setting": "[8]", "result": 0.102, "unit": "nM"}
    ]},
    {"binder": "B8", "values": [
      {"measurement": "IC50", "setting": "[9]", "result": 0.283, "unit": "nM"}
    ]},
    {"binder": "B9", "values": [
      {"measurement": "IC50", "setting": "[10]", "result": 0.17, "unit": "nM"}
    ]},
    {"binder": "B10", "values": [
      {"measurement": "IC50", "setting": "[11]", "result": 0.228, "unit": "nM"}
    ]},
    {"binder": "B11", "values": [
      {"measurement": "IC50", "setting": "[12]", "result": 0.073, "unit": "nM"}
    ]},
    {"binder": "B12", "values": [
      {"measurement": "IC50", "setting": "[13]", "result": 0.139, "unit": "nM"}
    ]},
    {"binder": "B13", "values": [
      {"measurement": "IC50", "setting": "[14]", "result": 2.1, "unit": "nM"}
    ]},
    {"binder": "GGGAGACUCGCCAGAGUUGAAAGAAACCCAAAUAAAGAUGUGCGCAUCA (ssRNA, 2'-F at all pyrimidines)", "note": "[aptamer ID 22]", "values": [
      {"measurement": "IC50", "setting": "[15]", "result": 1.3, "unit": "nM"}
    ]},
    {"binder": "B14", "values": [
      {"measurement": "IC50", "setting": "[16]", "result": 1.1, "unit": "nM"}
    ]}
  ]
}
